Results taken from patent US20240092919A1 (Ablynx, published 2024).

T1: Cynomolgus TCR(AEA41865/AEA41866)-zipper protein (cynomolgus monkey)
T1 construct: also called cyTCR-zipper protein; cynoTCR zipper
T1 TCR alpha: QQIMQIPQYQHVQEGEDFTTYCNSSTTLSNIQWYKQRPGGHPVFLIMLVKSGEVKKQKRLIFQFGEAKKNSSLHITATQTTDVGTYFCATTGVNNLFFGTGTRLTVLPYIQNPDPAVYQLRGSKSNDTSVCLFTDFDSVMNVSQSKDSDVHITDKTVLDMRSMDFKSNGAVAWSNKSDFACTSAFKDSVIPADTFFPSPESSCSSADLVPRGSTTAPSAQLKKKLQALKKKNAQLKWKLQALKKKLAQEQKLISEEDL
T1 TCR beta: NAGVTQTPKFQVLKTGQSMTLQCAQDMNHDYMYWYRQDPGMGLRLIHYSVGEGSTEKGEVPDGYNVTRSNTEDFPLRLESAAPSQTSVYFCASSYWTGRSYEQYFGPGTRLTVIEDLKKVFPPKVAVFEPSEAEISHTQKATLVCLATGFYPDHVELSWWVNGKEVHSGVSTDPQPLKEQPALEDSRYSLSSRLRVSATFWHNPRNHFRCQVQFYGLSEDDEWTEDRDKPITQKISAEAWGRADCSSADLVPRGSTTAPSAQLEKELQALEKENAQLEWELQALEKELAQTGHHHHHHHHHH


Molecular target: T1, Cynomolgus …
Assay: SPR ProteOn off-rate screen
From the text: Unique ISVD clones, i.e. clones with a unique sequence, were subsequently selected and screened to determine their off-rate. To this purpose, the ISVD containing periplasmic extracts were screened on huTCR-zipper and cyTCR-zipper protein by SPR on a ProteOn XPR36 instrument. The zipper proteins were immobilized on a GLC sensor chip (between 4300 and 5100RU) via amine coupling chemistry, using EDC/sulfo-NHS for activation of the carboxyl groups on the chip surface (running buffer: HBS-EP+, pH7.4). Periplasmic extracts were injected at 1/10 dilution for 2 min (at a flow rate of 45 μL/min) and dissociation was followed for 900 s. A pulse of 100 s of 3 M MgCl2 at 45 μL/min was used for regeneration. […] Processed sensorgrams were fitted with the Langmuir model (1:1 interaction) using ProteOn Manager 3.1.0 (Version 3.1.0.6) software.

Binder	koff [s⁻¹]
T017000354 (VHH) VHH: EVQLVESGGGVVQPGGSLRLSCVASGAVHKINFYGWYRQAPGKEREKVAHISIGDQTDYADSAKGRFTISRDESKNMVYLQMNSLRPEDTALYFCRAMSRIWPYDYWGQGTLVTVSS	0.000875
T017000357 (VHH) VHH: EVQLVESGGGVVQPGGSLRLSCVASGYVHQLNFYGWYRQAPGKEREKVAHISIGDQTDYADSAKGRFTISRDESKNMVYLQMNSLRPEDTALYFCRAMSRIWPYDYWGQGTLVTVSS	0.00251
T017000355 (VHH) VHH: EVQLVESGGGVVQPGGSLRLSCVASWDVHQLNFYGWYRQAPGKEREKVAHISIGDQTDYADSAKGRFTISRDESKNMVYLQMNSLRPEDTALYFCRAMSRIWPYDYWGQGTLVTVSS	0.00145
T017000362 (VHH) VHH: EVQLVESGGGVVQPGGSLRLSCVASYDVHKINFYGWYRQAPGKEREKVAHISIGDQTDYADSAKGRFTISRDESKNMVYLQMNSLRPEDTALYFCRAMSKIWPYDYWGQGTLVTVSS	0.000577
T017000361 (VHH) VHH: EVQLVESGGGVVQPGGSLRLSCVASGSVHKINFLGWYRQAPGKEREKVAHISIGDQTDYADSAKGRFTISRDESKNMVYLQMNSLRPEDTALYFCRAMSRIWPYDYWGQGTLVTVSS	0.000982
T017000363 (VHH) VHH: EVQLVESGGGVVQPGGSLRLSCVASGSVHKINFYGWYRQAPGKEREKVAHISIGDQTDYADSAKGRFTISRDESKNMVYLQMNSLRPEDTALYFCRAMSRIYPYDYWGQGTLVTVSS	0.00127
T017000359 (VHH) VHH: EVQLVESGGGVVQPGGSLRLSCVASWDVHQINFYGWYRQAPGKEREKVAHISIGDQTDYADSAKGRFTISRDESKNMVYLQMNSLRPEDTALYFCRAFSKIYPYDYWGQGTLVTVSS	0.000401
T017000356 (VHH) VHH: EVQLVESGGGVVQPGGSLRLSCVASGSVHKLNFYGWYRQAPGKEREKVAHISIGDQTDYADSAKGRFTISRDESKNMVYLQMNSLRPEDTALYFCRAMSRIWPYDYWGQGTLVTVSS	0.00089
T017000368 (VHH) VHH: EVQLVESGGGVVQPGGSLRLSCVASWDVHQINFYGWYRQAPGKEREKVAHISIGDQTDYADSAKGRFTISRDESKNMVYLQMNSLRPEDTALYFCRAMSRIYPYDYWGQGTLVTVSS	0.00129
T017000365 (VHH) VHH: EVQLVESGGGVVQPGGSLRLSCVASGAVHKLNFLGWYRQAPGKEREKVAHISIGDQTDYADSAKGRFTISRDESKNMVYLQMNSLRPEDTALYFCRAMSRIWPYDWWGQGTLVTVSS	0.00201
T017000364 (VHH) VHH: EVQLVESGGGVVQPGGSLRLSCVASGAVHQINFLGWYRQAPGKEREKVAHISIGDQTDYADSAKGRFTISRDESKNMVYLQMNSLRPEDTALYFCRAMSRIWPYDYWGQGTLVTVSS	0.0026
T017000360 (VHH) VHH: EVQLVESGGGVVQPGGSLRLSCVASWSVHQLNFYGWYRQAPGKEREKVAHISIGDQTDYADSAKGRFTISRDESKNMVYLQMNSLRPEDTALYFCRAMSKIYPYDWWGQGTLVTVSS	0.00243
T017000367 (VHH) VHH: EVQLVESGGGVVQPGGSLRLSCVASGYVHKINFLGWYRQAPGKEREKVAHISIGDQTDYADSAKGRFTISRDESKNMVYLQMNSLRPEDTALYFCRAMSRIWPYDYWGQGTLVTVSS	0.0011

Other lines, results leading:

koff [s⁻¹]	Binder
0.00289	T017000382 (VHH) VHH: EVQLVESGGGVVQPGGSLRLSCVASGSVHKINFYGWYRQAPGKEREKVAHISIGDQTDYADSAKGRFTISRDESKNMVYLQMNSLRPEDTALYFCRAMSRIYPYDWWGQGTLVTVSS
0.00183	T017000401 (VHH) VHH: EVQLVESGGGVVQPGGSLRLSCVASGSVHKINFYGWYRQAPGKEREKVAHISIGDQTDYADSAKGRFTISRDESKNMVYLQMNSLRPEDTALYFCRAMSRIWPYDWWGQGTLVTVSS
0.00138	T017000406 (VHH) VHH: EVQLVESGGGVVQPGGSLRLSCVASGYVHQINFYGWYRQAPGKEREKVAHISIGDQTDYADSAKGRFTISRDESKNMVYLQMNSLRPEDTALYFCRAMSRIWPYDYWGQGTLVTVSS
0.00155	T017000369 (VHH) VHH: EVQLVESGGGVVQPGGSLRLSCVASGSVHKLNFYGWYRQAPGKEREKVAHISIGDQTDYADSAKGRFTISRDESKNMVYLQMNSLRPEDTALYFCRAMSRIWPYDWWGQGTLVTVSS
0.000249	T017000378 (VHH) VHH: EVQLVESGGGVVQPGGSLRLSCVASWDVHKINFYGWYRQAPGKEREKVAHISIGDQTDYADSAKGRFTISRDESKNMVYLQMNSLRPEDTALYFCRAMSKIWPYDYWGQGTLVTVSS
0.00122	T017000372 (VHH) VHH: EVQLVESGGGVVQPGGSLRLSCVASGYVHKINFYGWYRQAPGKEREKVAHISIGDQTDYADSAKGRFTISRDESKNMVYLQMNSLRPEDTALYFCRAMSRIYPYDYWGQGTLVTVSS
0.00161	T017000391 (VHH) VHH: EVQLVESGGGVVQPGGSLRLSCVASGAVHKINFYGWYRQAPGKEREKVAHISIGDQTDYADSAKGRFTISRDESKNMVYLQMNSLRPEDTALYFCRAMSRIYPYDYWGQGTLVTVSS
0.00206	T017000386 (VHH) VHH: EVQLVESGGGVVQPGGSLRLSCVASGSVHKLNFLGWYRQAPGKEREKVAHISIGDQTDYADSAKGRFTISRDESKNMVYLQMNSLRPEDTALYFCRAFSRIWPYDWWGQGTLVTVSS
0.00383	T017000384 (VHH) VHH: EVQLVESGGGVVQPGGSLRLSCVASGAVHQLNFYGWYRQAPGKEREKVAHISIGDQTDYADSAKGRFTISRDESKNMVYLQMNSLRPEDTALYFCRAMSRIWPYDYWGQGTLVTVSS
0.000523	T017000374 (VHH) VHH: EVQLVESGGGVVQPGGSLRLSCVASYDVHQINFYGWYRQAPGKEREKVAHISIGDQTDYADSAKGRFTISRDESKNMVYLQMNSLRPEDTALYFCRAMSKIWPYDYWGQGTLVTVSS
0.00152	T017000403 (VHH) VHH: EVQLVESGGGVVQPGGSLRLSCVASWDVHQINFLGWYRQAPGKEREKVAHISIGDQTDYADSAKGRFTISRDESKNMVYLQMNSLRPEDTALYFCRAMSRIWPYDYWGQGTLVTVSS
0.00215	T017000370 (VHH) VHH: EVQLVESGGGVVQPGGSLRLSCVASGAVHQINFYGWYRQAPGKEREKVAHISIGDQTDYADSAKGRFTISRDESKNMVYLQMNSLRPEDTALYFCRAMSRIWPYDYWGQGTLVTVSS
0.00263	T017000398 (VHH) VHH: EVQLVESGGGVVQPGGSLRLSCVASYDVHQINFYGWYRQAPGKEREKVAHISIGDQTDYADSAKGRFTISRDESKNMVYLQMNSLRPEDTALYFCRAMSRIWPYDYWGQGTLVTVSS
0.000612	T017000371 (VHH) VHH: EVQLVESGGGVVQPGGSLRLSCVASGYVHKINFYGWYRQAPGKEREKVAHISIGDQTDYADSAKGRFTISRDESKNMVYLQMNSLRPEDTALYFCRAMSRIWPYDYWGQGTLVTVSS
0.000152	T017000379 (VHH) VHH: EVQLVESGGGVVQPGGSLRLSCVASWDVHQINFYGWYRQAPGKEREKVAHISIGDQTDYADSAKGRFTISRDESKNMVYLQMNSLRPEDTALYFCRAMSKIWPYDYWGQGTLVTVSS
0.000913	T017000373 (VHH) VHH: EVQLVESGGGVVQPGGSLRLSCVASGSVHKLNFLGWYRQAPGKEREKVAHISIGDQTDYADSAKGRFTISRDESKNMVYLQMNSLRPEDTALYFCRAMSRIWPYDYWGQGTLVTVSS
0.00214	T017000377 (VHH) VHH: EVQLVESGGGVVQPGGSLRLSCVASWDVHKINFYGWYRQAPGKEREKVAHISIGDQTDYADSAKGRFTISRDESKNMVYLQMNSLRPEDTALYFCRAMSRIYPYDYWGQGTLVTVSS
0.00245	T017000397 (VHH) VHH: EVQLVESGGGVVQPGGSLRLSCVASGSVHQLNFLGWYRQAPGKEREKVAHISIGDQTDYADSAKGRFTISRDESKNMVYLQMNSLRPEDTALYFCRAMSRIWPYDYWGQGTLVTVSS
0.00216	T017000381 (VHH) VHH: EVQLVESGGGVVQPGGSLRLSCVASGAVHKINFLGWYRQAPGKEREKVAHISIGDQTDYADSAKGRFTISRDESKNMVYLQMNSLRPEDTALYFCRAMSRIYPYDYWGQGTLVTVSS
